# Source: IntAct's records for PubMed 34948388
# B1: Multifunctional methyltransferase subunit TRM112-like protein (Homo sapiens), Q9UI30 (parent)
# chain: MKLLTHNLLSSHVRGVGSRGFPLRLQATEVRICPVEFNPNFVARMIPKVEWSAFLEAADNLRLIQVPKGPVEGYEENEEFLRTMHHLLLEVEVIEGTLQCPESGRMFPISRGIPNMLLSEEETES
# partner: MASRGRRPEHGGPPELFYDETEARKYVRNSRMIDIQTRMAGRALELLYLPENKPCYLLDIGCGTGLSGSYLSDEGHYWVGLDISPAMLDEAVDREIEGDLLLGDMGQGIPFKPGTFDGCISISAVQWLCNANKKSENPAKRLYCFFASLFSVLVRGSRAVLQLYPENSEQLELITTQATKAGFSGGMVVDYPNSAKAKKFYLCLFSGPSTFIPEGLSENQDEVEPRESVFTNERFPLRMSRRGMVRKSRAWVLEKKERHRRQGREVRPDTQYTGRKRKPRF
# B2: Multifunctional methyltransferase subunit TRM112-like protein (Homo sapiens), Q9UI30 (parent)
# chain: B1 chain
# partner: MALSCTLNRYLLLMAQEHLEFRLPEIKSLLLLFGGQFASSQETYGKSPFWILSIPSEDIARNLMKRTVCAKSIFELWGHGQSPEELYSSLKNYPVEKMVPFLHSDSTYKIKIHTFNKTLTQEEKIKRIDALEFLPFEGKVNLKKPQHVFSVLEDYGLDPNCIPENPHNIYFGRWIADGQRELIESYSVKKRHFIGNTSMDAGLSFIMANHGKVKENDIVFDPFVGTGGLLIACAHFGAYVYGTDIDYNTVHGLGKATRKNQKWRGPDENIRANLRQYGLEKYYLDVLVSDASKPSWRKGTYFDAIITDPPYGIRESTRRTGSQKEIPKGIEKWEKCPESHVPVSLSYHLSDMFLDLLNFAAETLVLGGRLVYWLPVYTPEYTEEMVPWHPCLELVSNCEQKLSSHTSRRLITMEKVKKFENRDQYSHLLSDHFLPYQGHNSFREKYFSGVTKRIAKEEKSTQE
# Variants of: B1
# Conditions: with bud23_human BUD23, O43709
row,Variant,effect of a mutation on the interaction
1,MKLLAHNLLSSHVRGVGSRGFPLRLQATEVRICPVEFNPNFVARMIPKVEWSAFLEAADNLRLIQVPKGPVEGYEENEEFLRTMHHLLLEVEVIEGTLQCPESGRMFPISRGIPNMLLSEEETES [T5A],decreasing interaction strength
2,MKLLTHNWLSSHVRGVGSRGFPLRLQATEVRICPVEFNPNFVARMIPKVEWSAFLEAADNLRLIQVPKGPVEGYEENEEFLRTMHHLLLEVEVIEGTLQCPESGRMFPISRGIPNMLLSEEETES [L8W],with no effect
3,MKLLTHNLLFSHVRGVGSRGFPLRLQATEVRICPVEFNPNFVARMIPKVEWSAFLEAADNLRLIQVPKGPVEGYEENEEFLRTMHHLLLEVEVIEGTLQCPESGRMFPISRGIPNMLLSEEETES [S10F],with no effect
4,MKLLTHNLLSSHVRGVGSRGFPLRLQATEVRICPVEFNPNFVARAIPKVEWSAFLEAADNLRLIQVPKGPVEGYEENEEFLRTMHHLLLEVEVIEGTLQCPESGRMFPISRGIPNMLLSEEETES [M45A],with no effect
5,MKLLTHNLLSSHVRGVGSRGFPLRLQATEVRICPVEFNPNFVARMIPAVEWSAFLEAADNLRLIQVPKGPVEGYEENEEFLRTMHHLLLEVEVIEGTLQCPESGRMFPISRGIPNMLLSEEETES [K48A],with no effect
6,MKLLTHNLLSSHVRGVGSRGFPLRLQATEVRICPVEFNPNFVARMIPAVEWSAFLEAADNLRLIQVPKGPVEGYEENEEFLRTMHHLLLEVAVIEGTLQCPESGRMFPISRGIPNMLLSEEETES [K48A;E92A],with no effect
7,MKLLTHNLLSSHVRGVGSRGFPLRLQATEVRICPVEFNPNFVARMIPKVAWSAFLEAADNLRLIQVPKGPVEGYEENEEFLRTMHHLLLEVEVIEGTLQCPESGRMFPISRGIPNMLLSEEETES [E50A],with no effect
8,MKLLTHNLLSSHVRGVGSRGFPLRLQATEVRICPVEFNPNFVARMIPKVEWSAFLEAADNLRLIQVPKGPVEGYEENEEFLRTMHHLLLEVAVIEGTLQCPESGRMFPISRGIPNMLLSEEETES [E92A],with no effect
9,MKLLTHNLLSSHVRGVGSRGFPLRLQATEVRICPVEFNPNFVARMIPKVEWSAFLEAADNLRLIQVPKGPVEGYEENEEFLRTMHHLLLEVEVIEGTLQCPESGRMAPISRGIPNMLLSEEETES [F107A],disrupting interaction strength
10,MKLLTHNLLSSHVRGVGSRGFPLRLQATEVRICPVEFNPNFVARMIPKVEWSAFLEAADNLRLIQVPKGPVEGYEENEEFLRTMHHLLLEVEVIEGTLQCPESGRMFPISRGAPNMLLSEEETES [I113A],with no effect

# Variants of: B2
# Conditions: with trm11_human TRMT11, Q7Z4G4
row,Variant,effect of a mutation on the interaction
1,MKLLAHNLLSSHVRGVGSRGFPLRLQATEVRICPVEFNPNFVARMIPKVEWSAFLEAADNLRLIQVPKGPVEGYEENEEFLRTMHHLLLEVEVIEGTLQCPESGRMFPISRGIPNMLLSEEETES [T5A],disrupting interaction strength
2,MKLLTHNWLSSHVRGVGSRGFPLRLQATEVRICPVEFNPNFVARMIPKVEWSAFLEAADNLRLIQVPKGPVEGYEENEEFLRTMHHLLLEVEVIEGTLQCPESGRMFPISRGIPNMLLSEEETES [L8W],with no effect
3,MKLLTHNLLFSHVRGVGSRGFPLRLQATEVRICPVEFNPNFVARMIPKVEWSAFLEAADNLRLIQVPKGPVEGYEENEEFLRTMHHLLLEVEVIEGTLQCPESGRMFPISRGIPNMLLSEEETES [S10F],with no effect
4,MKLLTHNLLSSHVRGVGSRGFPLRLQATEVRICPVEFNPNFVARAIPKVEWSAFLEAADNLRLIQVPKGPVEGYEENEEFLRTMHHLLLEVEVIEGTLQCPESGRMFPISRGIPNMLLSEEETES [M45A],with no effect
5,MKLLTHNLLSSHVRGVGSRGFPLRLQATEVRICPVEFNPNFVARMIPAVEWSAFLEAADNLRLIQVPKGPVEGYEENEEFLRTMHHLLLEVEVIEGTLQCPESGRMFPISRGIPNMLLSEEETES [K48A],with no effect
6,MKLLTHNLLSSHVRGVGSRGFPLRLQATEVRICPVEFNPNFVARMIPAVEWSAFLEAADNLRLIQVPKGPVEGYEENEEFLRTMHHLLLEVAVIEGTLQCPESGRMFPISRGIPNMLLSEEETES [K48A;E92A],disrupting interaction strength
7,MKLLTHNLLSSHVRGVGSRGFPLRLQATEVRICPVEFNPNFVARMIPKVAWSAFLEAADNLRLIQVPKGPVEGYEENEEFLRTMHHLLLEVEVIEGTLQCPESGRMFPISRGIPNMLLSEEETES [E50A],with no effect
8,MKLLTHNLLSSHVRGVGSRGFPLRLQATEVRICPVEFNPNFVARMIPKVEWSAFLEAADNLRLIQVPKGPVEGYEENEEFLRTMHHLLLEVAVIEGTLQCPESGRMFPISRGIPNMLLSEEETES [E92A],decreasing interaction strength
9,MKLLTHNLLSSHVRGVGSRGFPLRLQATEVRICPVEFNPNFVARMIPKVEWSAFLEAADNLRLIQVPKGPVEGYEENEEFLRTMHHLLLEVEVIEGTLQCPESGRMAPISRGIPNMLLSEEETES [F107A],decreasing interaction strength
